Legend:
HeLa Kyoto [1] = assay: solubility in G1/S (NP-40 vs SDS abundance) (log2 ratio); higher = more soluble; settings: cell cycle stage: G1/S
HeLa Kyoto [2] = assay: melting temperature (median over replicates), in situ; higher = more thermally stable
HeLa Kyoto [3] = assay: solubility change mitosis vs G1/S (difference of NP-40 vs SDS log2 ratios) (log2 ratio difference); higher = more soluble in mitosis
HeLa Kyoto [4] = assay: thermal stability score vs G1/S (z-score of summed log2 fold changes over temperatures); higher = more thermally stable than in G1/S
[5] = cell cycle stage: early G1 (4.5 h after nocodazole release)
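For melting temperature (median over replicates), in situ in this document: HeLa Kyoto cells synchronized by double thymidine or nocodazole block, proteins quantified by TMT10plex mass spectrometry, three independent biological replicates.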
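For solubility change mitosis vs G1/S (difference of NP-40 vs SDS log2 ratios) in this document: synchronized HeLa Kyoto cells (double thymidine block for G1/S, nocodazole release for mitosis), protein amounts in NP-40 versus SDS lysates quantified by mass spectrometry, three biological replicates.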
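For solubility in G1/S (NP-40 vs SDS abundance) in this document: HeLa Kyoto cells arrested at G1/S by double thymidine block, proteins quantified by TMT10plex mass spectrometry in mild NP-40 versus SDS extracts, three biological replicates.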
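For thermal stability score vs G1/S (z-score of summed log2 fold changes over temperatures) in this document: synchronized HeLa Kyoto cells, proteins quantified by TMT10plex mass spectrometry, three biological replicates, mitosis taken 0.5 h after nocodazole release, G1/S directly after double thymidine block.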

| Sequence | solubility in G1/S (log2) (HeLa Kyoto [1]) | melting temperature (HeLa Kyoto [2]; cell cycle stage: G1/S) [°C] | melting temperature (HeLa Kyoto [2]; cell cycle stage: mitosis) [°C] | solubility change mitosis (log2) (HeLa Kyoto [3]) | thermal stability score (HeLa Kyoto [4]; [5]) | thermal stability score (HeLa Kyoto [4]; cell cycle stage: mitosis) |
| --- | --- | --- | --- | --- | --- | --- |
| MAEMGSKGVTAGKIASNVQKKLTRAQEKVLQKLGKADETKDEQFEQCVQNFNKQLTEGTRLQKDLRTYLASVKAMHEASKKLNECLQEVYEPDWPGRDEANKIAENNDLLWMDYHQKLVDQALLTMDTYLGQFPDIKSRIAKRGRKLVDYDSARHHYESLQTAKKKDEAKIAKPVSLLEKAAPQWCQGKLQAHLVAQTNLLRNQAEEELIKAQKVFEEMNVDLQEELPSLWNSRVGFYVNTFQSIAGLEENFHKEMSKLNQNLNDVLVGLEKQHGSNTFTVKAQPSDNAPAKGNKSPSPPDGSPAATPEIRVNHEPEPAGGATPGATLPKSPSQLRKGPPVPPPPKHTPSKEVKQEQILSLFEDTFVPEISVTTPSQFEAPGPFSEQASLLDLDFDPLPPVTSPVKAPTPSGQSIPWDLWEPTESPAGSLPSGEPSAAEGTFAVSWPSQTAEPGPAQPAEASEVAGGTQPAAGAQEPGETAASEAASSSLPAVVVETFPATVNGTVEGGSGAGRLDLPPGFMFKVQAQHDYTATDTDELQLKAGDVVLVIPFQNPEEQDEGWLMGVKESDWNQHKELEKCRGVFPENFTERVP [BIN1] | 0.803 | 51.9 | 51.6 | -0.0586 | -1.69 | 0.531 |
| MAENSVLTSTTGRTSLADSSIFDSKVTEISKENLLIGSTSYVEEEMPQIETRVILVQEAGKQEELIKALKTIKIMEVPVIKIKESCPGKSDEKLIKSVINMDIKVGFVKMESVEEFEGLDSPEFENVFVVTDFQDSVFNDLYKADCRVIGPPVVLNCSQKGEPLPFSCRPLYCTSMMNLVLCFTGFRKKEELVRLVTLVHHMGGVIRKDFNSKVTHLVANCTQGEKFRVAVSLGTPIMKPEWIYKAWERRNEQDFYAAVDDFRNEFKVPPFQDCILSFLGFSDEEKTNMEEMTEMQGGKYLPLGDERCTHLVVEENIVKDLPFEPSKKLYVVKQEWFWGSIQMDARAGETMYLYEKANTPELKKSVSMLSLNTPNSNRKRRRLKETLAQLSRETDVSPFPPRKRPSAEHSLSIGSLLDISNTPESSINYGDTPKSCTKSSKSSTPVPSKQSARWQVAKELYQTESNYVNILATIIQLFQVPLEEEGQRGGPILAPEEIKTIFGSIPDIFDVHTKIKDDLEDLIVNWDESKSIGDIFLKYSKDLVKTYPPFVNFFEMSKETIIKCEKQKPRFHAFLKINQAKPECGRQSLVELLIRPVQRLPSVALLLNDLKKHTADENPDKSTLEKAIGSLKEVMTHINEDKRKTEAQKQIFDVVYEVDGCPANLLSSHRSLVQRVETISLGEHPCDRGEQVTLFLFNDCLEIARKRHKVIGTFRSPHGQTRPPASLKHIHLMPLSQIKKVLDIRETEDCHNAFALLVRPPTEQANVLLSFQMTSDELPKENWLKMLCRHVANTICKADAENLIYTADPESFEVNTKDMDSTLSRASRAIKKTSKKVTRAFSFSKTPKRALRRALMTSHGSVEGRSPSSNDKHVMSRLSSTSSLAGIPSPSLVSLPSFFERRSHTLSRSTTHLI [ECT2] | -0.347 | 46.9 | 49.4 | 0.255 | 0.718 | 0.962 |
| MAEPDPSHPLETQAGKVQEAQDSDSDSEGGAAGGEADMDFLRNLFSQTLSLGSQKERLLDELTLEGVARYMQSERCRRVICLVGAGISTSAGIPDFRSPSTGLYDNLEKYHLPYPEAIFEISYFKKHPEPFFALAKELYPGQFKPTICHYFMRLLKDKGLLLRCYTQNIDTLERIAGLEQEDLVEAHGTFYTSHCVSASCRHEYPLSWMKEKIFSEVTPKCEDCQSLVKPDIVFFGESLPARFFSCMQSDFLKVDLLLVMGTSLQVQPFASLISKAPLSTPRLLINKEKAGQSDPFLGMIMGLGGGMDFDSKKAYRDVAWLGECDQGCLALAELLGWKKELEDLVRREHASIDAQSGAGVPNPSTSASPKKSPPPAKDEARTTEREKPQ [SIRT2] | 0.229 | 51.4 | 52.5 | -0.026 | 0.148 | -0.178 |
| MAEPSAATQSHSISSSSFGAEPSAPGGGGSPGACPALGTKSCSSSCADSFVSSSSSQPVSLFSTSQEGLSSLCSDEPSSEIMTSSFLSSSEIHNTGLTILHGEKSHVLGSQPILAKEGKDHLDLLDMKKMEKPQGTSNNVSDSSVSLAAGVHCDRPSIPASFPEHPAFLSKKIGQVEEQIDKETKNPNGVSSREAKTALDADDRFTLLTAQKPPTEYSKVEGIYTYSLSPSKVSGDDVIEKDSPESPFEVIIDKAAFDKEFKDSYKESTDDFGSWSVHTDKESSEDISETNDKLFPLRNKEAGRYPMSALLSRQFSHTNAALEEVSRCVNDMHNFTNEILTWDLVPQVKQQTDKSSDCITKTTGLDMSEYNSEIPVVNLKTSTHQKTPVCSIDGSTPITKSTGDWAEASLQQENAITGKPVPDSLNSTKEFSIKGVQGNMQKQDDTLAELPGSPPEKCDSLGSGVATVKVVLPDDHLKDEMDWQSSALGEITEADSSGESDDTVIEDITADTSFENNKIQAEKPVSIPSAVVKTGEREIKEIPSCEREEKTSKNFEELVSDSELHQDQPDILGRSPASEAACSKVPDTNVSLEDVSEVAPEKPITTENPKLPSTVSPNVFNETEFSLNVTTSAYLESLHGKNVKHIDDSSPEDLIAAFTETRDKGIVDSERNAFKAISEKMTDFKTTPPVEVLHENESGGSEIKDIGSKYSEQSKETNGSEPLGVFPTQGTPVASLDLEQEQLTIKALKELGERQVEKSTSAQRDAELPSEEVLKQTFTFAPESWPQRSYDILERNVKNGSDLGISQKPITIRETTRVDAVSSLSKTELVKKHVLARLLTDFSVHDLIFWRDVKKTGFVFGTTLIMLLSLAAFSVISVVSYLILALLSVTISFRIYKSVIQAVQKSEEGHPFKAYLDVDITLSSEAFHNYMNAAMVHINRALKLIIRLFLVEDLVDSLKLAVFMWLMTYVGAVFNGITLLILAELLIFSVPIVYEKYKTQIDHYVGIARDQTKSIVEKIQAKLPGIAKKKAE [RTN3] | 0.125 | 55.7 | 57.6 | -0.108 | 0.293 | -1.15 |

— the supplement of paper PMC5998384
